Values belong to the binder of their own block, whether it stands above or below them.
B1: LHFPL5, purified in complex with PCDH15 for cryo-EM (Strep-mCerulean removed) (natural protein, mouse (Mus musculus), UniProt Q4KL25 2-219, looked up)
chain: VKLLPAQEAAKIYHTNYVRNSRAVGVMWGTLTICFSVLVMALFIQPYWIGDSVSTPQAGYFGLFSYCVGNVLSSELICKGGPLDFSSIPSRAFKTAMFFVALAMFLIIGSIICFSLFFVCNTATVYKICAWMQLAAATGLMIGCLVYPDGWDSSEVRRMCGEQTGKYTLGHCTIRWAFMLAILSIGDALILSFLAFVLGYRQDKLLPDDYKADGNEEV
notes: called full length LHFPL5 in the text; also called TMHS; not shown: Strep, N-terminal, cleaved; mCerulean, N-terminal, cleaved

How the values were obtained:
[1] = target: the molecule itself; experiment: cryo-EM structure; PCDH15_(1EC)-LHFPL5 complex co-expressed and co-purified in digitonin; C2, ~4.5 Å
[2] = target: B1; experiment: as above; details: both partners purified
[3] = target: the molecule itself; experiment: AUC; sedimentation velocity, global direct boundary modelling (Lamm equation, kinetic homo-dimerization model) of samples at 2.3, 7.0 and 11.8 µM; dimer to monomers
[4] = target: the molecule itself; experiment: AUC; sedimentation velocity, 20°C, 50,000 rpm, absorbance 280 nm, 20 mM Tris pH 8.0, 150 mM NaCl; loading concentrations 0.1-57.8 µM; sw isotherm fitted with a monomer-dimer model; dimer to monomers
[5] = target: B1; experiment: cryo-EM structure; PCDH15_(4EC)-LHFPL5 complex co-expressed and co-purified in digitonin with 1 mM CaCl2; Volta phase plate; straight conformation, C2, ~11.3 Å; domains fitted as rigid bodies; details: both partners purified
[6] = target: the molecule itself; experiment: as above

Binder: B1
stoichiometry N [1]: 2

binding result [2]: binds
B2: PCDH15_(1EC) (EC11 to CR), purified in complex with LHFPL5 for cryo-EM (domain or fragment, mouse (Mus musculus), UniProt Q99PJ1 27-30, looked up)
chain: QYDDHPPVFQKKFYIGGVSEDARMFASVLRVKATDRDTGNYSAMAYRLIIPPIKEGKEGFVVETYTGLIKTAMLFHNMRRSYFKFQVIATDDYGKGLSGKADVLVSVVNQLDMQVIVSNVPPTLVEKKIEDLTEILDRYVQEQIPGAKVVVESIGARRHGDAYSLEDYSKCDLTVYAIDPQTNRAIDRNELFKFLDGKLLDINKDFQPYYGEGGRILEIRTPEAVTSIKKRGESLGYTEGALLALAFIIILCCIPAILVVLVSYRQFKVRQAECTKTARIQSAMPAAKPAAPVPAAPAPPPPPPPPPPGAHLYEELGESAMH
notes: signal peptide in the construct; source: HEK293 tsa201 (suspension), BacMam co-infection with LHFPL5, purified (Strep-Tactin, TALON, thrombin, SEC in digitonin); not shown: mVenus, C-terminal, cleaved; 8xHis, C-terminal, cleaved
stoichiometry N [1]: 2

B3: PCDH15 EC11-ELAUC (domain or fragment, mouse (Mus musculus), UniProt Q99PJ1 27-30, looked up)
chain: QYDDHPPVFQKKFYIGGVSEDARMFASVLRVKATDRDTGNYSAMAYRLIIPPIKEGKEGFVVETYTGLIKTAMLFHNMRRSYFKFQVIATDDYGKGLSGKADVLVSVVNQLDMQVIVSNVPPTLVEKKIEDLTEILDRYVQEQIPGAKVVVESIGARRHGDAYSLEDYSKCDLTVYAIDPQTNRAIDRNELFKFLDGKLLDINKDFQPYYGEGGRILEIRTPEAVTSIKKRGESLGYTEG
modifications: treated with PNGase
notes: signal peptide in the construct; also called protocadherin 15; source: HEK293S GnTI- cells, BacMam, secreted, purified (TALON, PNGase treatment, SEC; no thrombin digestion); not shown: 8xHis, C-terminal, kept
Kd [3]: 6.64 µM
koff [3]: 0.00035 s⁻¹
Kd [4]: 5.7 µM
stoichiometry N [4]: 2

binding result [5]: binds
B4: PCDH15_(4EC), purified in complex with LHFPL5 for cryo-EM (domain or fragment, mouse (Mus musculus), UniProt Q99PJ1 27-30, looked up)
chain: QYDDSPVFTNSTYTVVVEENLPAGTSFLQIEAKDVDLGANVSYRIRSPEVKHLFALHPFTGELSLLRSLDYEAFPDQEASITFLVEAFDIYGTMPPGIATVTVIVKDMNDYPPVFSKRIYKGMVAPDAVKGTPITTVYAEDADPPGMPASRVRYRVDDVQFPYPASIFDVEEDSGRVVTRVNLNEEPTTIFKLVVVAFDDGEPVMSSSATVRILVLHPGEIPRFTQEEYRPPPVSELAARGTVVGVISAAAINQSIVYSIVAGNEEDKFGINNVTGVIYVNSPLDYETRTSYVLRVQADSLEVVLANLRVPSKSNTAKVYIEIQDENDHPPVFQKKFYIGGVSEDARMFASVLRVKATDRDTGNYSAMAYRLIIPPIKEGKEGFVVETYTGLIKTAMLFHNMRRSYFKFQVIATDDYGKGLSGKADVLVSVVNQLDMQVIVSNVPPTLVEKKIEDLTEILDRYVQEQIPGAKVVVESIGARRHGDAYSLEDYSKCDLTVYAIDPQTNRAIDRNELFKFLDGKLLDINKDFQPYYGEGGRILEIRTPEAVTSIKKRGESLGYTEGALLALAFIIILCCIPAILVVLVSYRQFKVRQAECTKTARIQSAMPAAKPAAPVPAAPAPPPPPPPPPPGAHLYEELGESAMH
modifications: N-linked glycosylation (predicted sites; density at EC10 and EC11)
notes: signal peptide in the construct; the tag may have stayed on; not shown: mVenus, C-terminal, cleaved; 8xHis, C-terminal, cleaved
binding result [6]: binds

Reference: article PMC6092121, “Structure of mouse protocadherin 15 of the stereocilia tip link in complex with LHFPL5” (eLife, 2018)
